From the supplement of paper PMC12042874 come the findings set out here.

± gives the uncertainty stated by the source.

The series can be described thus: amyloid nucleation score (Sup35N fusion, yeast selection) (log enrichment); library NNK2; higher = more nucleation; inactive = no reads after selection. In short, it runs like this: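 The nucleation score is the log enrichment of output over input reads, calculated with DiMSum and centred on the mode score of non-aggregating sequences. Sequences with under 100 input reads were excluded. Reads came from Illumina sequencing of plasmid inserts from psi-negative yeast expressing Sup35N fused to peptides of 20 random codons, induced 24 hours with 100 μM copper sulfate and grown 7 days at 30°C without adenine and uracil.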
For the substance STYPILR, the amyloid nucleation score was determined as 2.02 ± 0.18. With SVCGLWWLSHSVQRWSEWYS, the amyloid nucleation score turned out to be 5.99 ± 0.067. On to SVCYGSSIWN, for which the amyloid nucleation score is -0.083 ± 0.39. As for SVDHLDSVFDYFHVRYKFIS, the amyloid nucleation score is -1.09 ± 1.1. In turn, SVESIYLVVDVMMLGELCCA showed an amyloid nucleation score of 4.849 ± 0.034. For the substance SVFYVSKSSLTPDLDSVFLS, the amyloid nucleation score is -0.376 ± 0.48. With SVGPLLYATMSMAGDSVAGA, the amyloid nucleation score came to 0.004 ± 0.34. SVGSGPVSSLRRKHDRGDTP registered an amyloid nucleation score of 0.253 ± 0.35. SVGYWTVDSVTSVATPLFLA yielded an amyloid nucleation score of 0.331 ± 0.35.

SVIDFLLAYRKDLWCWDLT returned an amyloid nucleation score of 0.19 ± 0.8. The substance SVKLHSGGSWLRTWDWPRVC gave an amyloid nucleation score of 1.55 ± 0.21. Take SVKQGN: the amyloid nucleation score worked out at 0.132 ± 0.22. As for SVLAFKSFGSHCIGYIYVNL, the amyloid nucleation score entry is “inactive”. The substance SVLCEGTPEETTFLSDRLSG registered an amyloid nucleation score of 1.09 ± 0.27.

In turn, SVLLVSLDFSPITGYSKGGL gave an amyloid nucleation score of 2.72 ± 0.082. The figure for SVLSLTKMFGFVADGSRIIK is -0.574 ± 0.5.

SVMFMNSSFQRAT displayed an amyloid nucleation score of -0.586 ± 0.42. In turn, SVNWTRLRECKPWMQVFNRG gave an amyloid nucleation score of 0.208 ± 0.56. SVNYVCISLVVM: the amyloid nucleation score worked out at 7.14 ± 0.072. As to SVQFRMIQDLRVAADGRPRA, the amyloid nucleation score worked out at 5.545 ± 0.05.

In turn, SVQSSWLNLLAVYIVFCCQR yielded an amyloid nucleation score of -0.833 ± 0.54.

Substance SVRMVFIGNLSRGNWSALWS gave an amyloid nucleation score of 7.627 ± 0.037. The same measure for SVSETLWYDYIFKFVISVAN: -1.03 ± 0.63; for SVVGQKVGGR: 0.487 ± 0.33; for SVVLFEYGWICEIIEGSDII: “inactive”. Turning to SVVLYMLVLLDADLSVKTRD, the amyloid nucleation score came to 2.52 ± 0.06. The same measure for SVVVCWGKFLSGVGAWLFHS: “inactive”. Regarding SVYLVG, the amyloid nucleation score was -0.271 ± 0.65. Regarding SWATLRVCNIFCMITCSYFM, the amyloid nucleation score amounted to 1.51 ± 0.15. In turn, SWCCTSIYHVRLW returned an amyloid nucleation score of 9.427 ± 0.058.

Turning to SWCLKRRTPHFVQVYHRNND, the amyloid nucleation score was -0.095 ± 0.26. Turning to SWDHDYCGRWWCSNARGKIN, the amyloid nucleation score is 4.3 ± 0.07.

Turning to SWFWVPGNQLLMTIEGFQWS, the amyloid nucleation score is -0.281 ± 0.35. On to SWNTVVFSGKDNSILGVLAQ, for which the amyloid nucleation score is -0.176 ± 0.45.

SWSCMTRW: the amyloid nucleation score came to 5.464 ± 0.049. In the case of SWVNMIMNMSLHTDIRYMLY, the amyloid nucleation score stood at 1.66 ± 0.25. In the case of SWVRVDHLNDMYRFELK, the amyloid nucleation score turned out to be 0.286 ± 0.46. As for SWWIGASEVVHGSKSEGI, the amyloid nucleation score was -0.357 ± 1.1. The figure for SYACNRYKRMTAQIRNQGGM is 0.225 ± 0.42; for SYANCNLNVNTLREEVHERW it is 0.268 ± 0.62. SYDIFWILWLASCMLILYII registered an amyloid nucleation score of 2.92 ± 0.099. SYDLELAT: the amyloid nucleation score turned out to be 0.667 ± 0.18. As to SYDPSVMAVGSH, the amyloid nucleation score was -0.135 ± 0.33.

Regarding SYEAGMHVNKGYLQVMCVDG, the amyloid nucleation score was -0.086 ± 0.23. The substance SYFGSAHKVAEAHL registered an amyloid nucleation score of 0.377 ± 0.45. Regarding SYGWFCSRVIFWRSGNFYWK, the amyloid nucleation score result is “inactive”. SYHGVRLFDIHIGSLKFQQ came in with an amyloid nucleation score of 7.549 ± 0.054.

Substance SYILGILFVFYVCETKYLYL returned an amyloid nucleation score of 0.328 ± 0.25.

With SYIWR, the amyloid nucleation score is -0.551 ± 0.64.

SYLLSKMQHFLMVTK gave an amyloid nucleation score of -1.32 ± 0.53. For SYNFM, the amyloid nucleation score result is “inactive”.

For the substance SYNKMMVDRFKYADLRDVRA, the amyloid nucleation score was found to be 1.03 ± 0.38. Substance SYPACRNRAVVRARGVVNLW displayed an amyloid nucleation score of 2.7 ± 0.18.

As for SYSYDRVRKDTELARRNRAV, the amyloid nucleation score came out at 0.436 ± 0.44. For the substance SYTCSS, the amyloid nucleation score was -0.211 ± 0.48. SYVNKWAECLSCTTEYTMSK: the amyloid nucleation score result was “inactive”.

In the case of SYWGQIGRSHTSCLCPSDQV, the amyloid nucleation score entry was “inactive”.
